Our source for the Km values is PMC10960864, “Bidirectional ATP-driven transport of cobalamin by the mycobacterial ABC transporter BacA” (Nature Communications, 2024).

The test system of this data set is Nc1ncnc2c1ncn2[C@@H]1O[C@H](COP(=O)(O)OP(=O)(O)OP(=O)(O)O)[C@@H](O)[C@H]1O. The experiment in a line: purified protein. As to conditions: import direction, Mg-ATP varied, 65 µM cyanocobalamin, pH 7.5, 30 °C, 1 mM DTT.

For BacAMm (Mycobacterium marinum M), the Km (as a rule, the concentration of substrate that gives half-maximal velocity) is 0.25 mM.
